# Measurements from patent publication US20240117029A1 (Hoffmann-La Roche, published 2024).
# B1: Humanized 11K2 (antibody, human IgG1, V domains shown)
# VH: QVQLVQSGAEVKKPGSSVKVSCKASGLTISDTYMHWVRQAPGQGLEWMGRIDPANGNTKFDPKFQGRVTITADTSTSTAYMELSSLRSEDTAVYYCARGVFGFFDYWGQGTTVTVSS
# VL: DIQMTQSPSSLSASVGDRVTITCKATEDIYNRLAWYQQKPGKAPKLLISGATSLETGVPSRFSGSGSGTDYTLTISSLQPEDFATYYCQQFWSAPYTFGGGTKVEIK
# notes: Generated as human IgG1 wild type and IgG1 PGLALA with kappa light chain; also called CCL2-0002; humanized 11k2 IgG1
# B2: 1A4//2F6-PGLALA (bispecific antibody, V domains shown)
# VH 1: QSLEESGGDLVKPGASLTLTCTASELDFYWICWVRQAPGKGLEWIACIGAGSSGSTYYASWAKGRFTVSKTSSTTVTLQMTSLTAADTATYFCARTGTEFTYYSLWGPGTLVTVSS
# VL 1: ALVMTQTPSSVSAAVGGTVTINCQASQSVYNNNMAWYQQKPGQPPKLLIYTASSLASGVPSHFRGSGSGTQFTLTISDLESDDAATYYCAGYKSYSNDEYGFGGGTEVVVK
# VH 2: QSLEESGGGLVQPEGSLTLTCTASGFSFNNNYYMCWVRQAPGKGLEWIGCISTDDSNTHYASWAQGRFTISKASSTALTLQVAGLTVADMATYFCARDAHFTSYGYGFDLWGPGTLVTVSS
# VL 2: DIVMTQTPASVSAAVGGTVSINCRASEDIENLVAWYQQKPGQPPKLLIYQASKLASGVPSRFKGSGSGAEFTLTIGDLESADAATYYCQGDYGSGWIMYSFGGGTDLVVK
# notes: CrossMab: 1A4 arm VH/VL crossed, 2F6 arm non-crossed with CH1/CL charge modifications, knobs-into-holes, human IgG1 with L234A, L235A, P329G; also called CCL2-0054; P1AA3459
# B3: 1A4//2F6-WT IgG1 (bispecific antibody, V domains shown)
# VH 1: B2 VH 1
# VL 1: B2 VL 1
# VH 2: B2 VH 2
# VL 2: B2 VL 2
# notes: CrossMab: 1A4 arm VH/VL crossed, 2F6 arm non-crossed with CH1/CL charge modifications, knobs-into-holes, human IgG1 wild type Fc; also called CCL2-0057; P1AA3400
# B4: ABN912 (antibody, human IgG1, V domains shown)
# VH: EVQLVQSGGGLVQPGGSLRLSCAASGFTFSHYWMSWVRQAPGKGLEWLANIEQDGSEKYYVDSVKGRFTISRDNAKNSLYLQMNSLRAEDTAVYFCARDLEGLHGDGYFDLWGRGTLVTVSS
# VL: AIQLTQSPSSLSASVGDRVILTCRASQGVSSALAWYQQKPGKAPKLLIYDASSLESGVPSRFSGSGSGPDFTLTISSLQPEDFATYFCQQFNSYPLTFGGGTKVEIK
# notes: Generated as human IgG1 wild type and IgG1 PGLALA with kappa light chain; also called AB912; CCL2-0003
# Legend:
# [1] = biological target: T1, human CCL2 (MCP1) - wild type (wt) (human, UniProt P13500 24-99); test: cell-based or functional assay
# [2] = biological target: T1, human CCL2 (MCP1) - wild type (wt); test: SPR Biacore T200, 37 C, antibody captured, CCL2 as analyte, 1:1 model
# Procedure: (§1) Antibody clone supernatants were diluted 1:2 in system buffer and were captured for 1 min at 5 μl/min. […] Analyte kinetics were performed at 30 μl/min. […] Analytes were injected at 90 nM highest concentration. The analyte contact time was 3 min and the dissociation time was 10 min. The Biaevaluation software V.3.0 was used according to the instructions of the manufacturer GEHC. A 1:1 binding model with RMAX local was applied to apparently estimate kinetic rates.
# [3] = biological target: T2, human CCL2 (MCP1) - P8A variant (human, UniProt P13500 24-99); test: as above
# T2 construct: Entry is without signal peptide; P8A prevents dimer formation (pure monomer); made in-house; also called monomeric human CCL2; monomeric CCL2
# Procedure: as §1
# [4] = biological target: T1, human CCL2 (MCP1) - wild type (wt); test: SPR Biacore T200, 25 C, pH 5.5, antibody captured via anti-human Fc, 1:1 model
# Procedure: (§2) An antibody capture system was established. […] The capture system was regenerated by an injection at 20 μl/min with HBS buffer (100 mM HEPES pH 7.4, 1.5 M NaCl, 0.05% (w/v) Tween 20), followed by a 1 min 15 sec injection with 10 mM NaOH and two 10 mM glycine buffer pH 2.5 injections for 1 min. Antibodies were captured were injected for 30 sec at 10 μl/min at 80 nM concentration diluted in the respective system buffer. […] The analyte contact time was 3 min and the dissociation time was 10 min. Analyte kinetics were performed at 50 μl/min.
# (§3) The Biaevaluation software V.3.0 was used according to the instructions of the manufacturer GEHC. A 1:1 binding model with RMAX local was applied to determine kinetic rates.
# [5] = biological target: T1, human CCL2 (MCP1) - wild type (wt); test: SPR Biacore T200, 25 C, pH 5.9, antibody captured via anti-human Fc, 1:1 model
# Procedure: as §2, §3
# [6] = biological target: T1, human CCL2 (MCP1) - wild type (wt); test: SPR Biacore T200, 25 C, pH 6.3, antibody captured via anti-human Fc, 1:1 model
# Procedure: as §2, §3
# [7] = biological target: T1, human CCL2 (MCP1) - wild type (wt); test: SPR Biacore T200, 25 C, pH 6.7, antibody captured via anti-human Fc, 1:1 model
# Procedure: as §2, §3
# [8] = biological target: T1, human CCL2 (MCP1) - wild type (wt); test: SPR Biacore T200, 25 C, pH 7.1, antibody captured via anti-human Fc, 1:1 model
# Procedure: as §2, §3
# [9] = biological target: T1, human CCL2 (MCP1) - wild type (wt); test: SPR Biacore T200, 25 C, pH 7.4, antibody captured via anti-human Fc, 1:1 model
# Procedure: as §2, §3
# [10] = biological target: T1, human CCL2 (MCP1) - wild type (wt); test: SPR Biacore T200, 25 C, pH 7.9, antibody captured via anti-human Fc, 1:1 model
# Procedure: as §2, §3
# [11] = biological target: T1, human CCL2 (MCP1) - wild type (wt); test: SPR Biacore T200, 25 C, pH 8.3, antibody captured via anti-human Fc, 1:1 model
# Procedure: as §2, §3
# [12] = biological target: T1, human CCL2 (MCP1) - wild type (wt); test: SPR, 25 C, pH 7.4, antibody captured via anti-human Fc on C1 chip, wt CCL2 as analyte, 1:1 model
# Procedure: The sample and system buffer was PBS-T (10 mM phosphate buffered saline including 0.05% Tween20) pH 7.4. The flow cell was set to 25° C.—and the sample block set to 12° C.—and primed with running buffer twice. The bispecific antibody was captured by injecting a 2 μg/ml solution for 60 sec at a flow rate of 10 μl/min. Association was measured by injection of human CCL2 (wt) in various concentrations in solution for 150 sec at a flow rate of 30 μl/min starting with 30 nM in 1:10 dilutions. The dissociation phase was monitored for up to 1200 sec and triggered by switching from the sample solution to running buffer. […] Bulk refractive index differences were corrected by subtracting the response obtained from a goat anti human IgG Fc surface. Blank injections are also subtracted (=double referencing). For calculation of kinetic parameters, the Langmuir 1:1 model was used.
Binder,"IC50, inhibition of THP-1 migration towards recombinant huCCL2 [1] [µg/mL]",T½ [2] [h],T½ [3] [h],t½-diss. [4] [h],t½-diss. [5] [h],t½-diss. [6] [h],t½-diss. [7] [h],t½-diss. [8] [h],t½-diss. [9] [h],t½-diss. [10] [h],t½-diss. [11] [h],binding result [12]
B1,0.7,1.97,1.93,1.97,4.78,19.2,4.87,3.58,2.72,2.75,19.2,–
B2,–,–,–,–,–,–,–,–,–,–,–,binds
B3,–,–,–,–,–,–,–,–,–,–,–,binds
B4,–,0.55,0.417,0.0005,0.0167,0.05,0.133,0.333,0.55,0.417,0.583,–
